Where two headings read alike, the source gives them in different places.
How the values were obtained:
canine NPR1 = canine NPR1 (Canis lupus familiaris, UniProt A0A8I3MHU3); assay: cell-based or functional assay
[1] = target: T1, human NPR1 on HEK293 cells (Homo sapiens, UniProt P16066); assay: flow cytometry on cells
[2] = target: T2, cynomolgus monkey NPR1 on HEK293 cells (Macaca fascicularis); assay: flow cytometry on cells
T2 chain: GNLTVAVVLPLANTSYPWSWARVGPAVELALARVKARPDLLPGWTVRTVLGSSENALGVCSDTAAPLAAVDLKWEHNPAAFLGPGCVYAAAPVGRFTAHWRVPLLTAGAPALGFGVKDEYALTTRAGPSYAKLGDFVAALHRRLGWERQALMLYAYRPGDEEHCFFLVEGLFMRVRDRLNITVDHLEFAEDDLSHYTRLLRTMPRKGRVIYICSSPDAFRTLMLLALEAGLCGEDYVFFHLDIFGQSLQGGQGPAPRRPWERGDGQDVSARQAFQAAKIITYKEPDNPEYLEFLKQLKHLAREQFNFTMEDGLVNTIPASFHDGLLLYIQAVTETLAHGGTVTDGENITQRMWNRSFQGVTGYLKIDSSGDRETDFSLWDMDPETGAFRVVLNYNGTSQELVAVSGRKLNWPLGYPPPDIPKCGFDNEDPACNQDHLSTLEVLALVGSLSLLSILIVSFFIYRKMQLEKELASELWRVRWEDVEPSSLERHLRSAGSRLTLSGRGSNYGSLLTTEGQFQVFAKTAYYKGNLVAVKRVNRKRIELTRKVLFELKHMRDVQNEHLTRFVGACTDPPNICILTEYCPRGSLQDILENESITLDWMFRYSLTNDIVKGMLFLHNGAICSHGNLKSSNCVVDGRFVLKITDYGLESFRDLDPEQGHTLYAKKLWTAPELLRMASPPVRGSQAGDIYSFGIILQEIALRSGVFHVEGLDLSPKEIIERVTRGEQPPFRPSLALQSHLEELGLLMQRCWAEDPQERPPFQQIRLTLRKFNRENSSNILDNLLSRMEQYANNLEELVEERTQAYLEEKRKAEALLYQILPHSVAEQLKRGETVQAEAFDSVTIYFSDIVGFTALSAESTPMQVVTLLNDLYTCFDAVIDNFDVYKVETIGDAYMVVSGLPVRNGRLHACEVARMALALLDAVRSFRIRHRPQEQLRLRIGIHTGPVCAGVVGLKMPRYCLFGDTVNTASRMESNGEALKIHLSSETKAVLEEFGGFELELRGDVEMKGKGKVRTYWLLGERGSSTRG

[3] = target: T1, human NPR1 on HEK293 cells; assay: flow cytometry on cells; remark: listed apart in the source
[4] = target: T2, cynomolgus monkey NPR1 on HEK293 cells; assay: flow cytometry on cells
[5] = target: T1, human NPR1 on HEK293 cells; assay: flow cytometry on cells; remark: listed apart in the source
[6] = target: T2, cynomolgus monkey NPR1 on HEK293 cells; assay: flow cytometry on cells
[7] = target: T3, monkey NPR1 extracellular domain with C-terminal MycMycHis (Macaca fascicularis); assay: SPR
T3 chain: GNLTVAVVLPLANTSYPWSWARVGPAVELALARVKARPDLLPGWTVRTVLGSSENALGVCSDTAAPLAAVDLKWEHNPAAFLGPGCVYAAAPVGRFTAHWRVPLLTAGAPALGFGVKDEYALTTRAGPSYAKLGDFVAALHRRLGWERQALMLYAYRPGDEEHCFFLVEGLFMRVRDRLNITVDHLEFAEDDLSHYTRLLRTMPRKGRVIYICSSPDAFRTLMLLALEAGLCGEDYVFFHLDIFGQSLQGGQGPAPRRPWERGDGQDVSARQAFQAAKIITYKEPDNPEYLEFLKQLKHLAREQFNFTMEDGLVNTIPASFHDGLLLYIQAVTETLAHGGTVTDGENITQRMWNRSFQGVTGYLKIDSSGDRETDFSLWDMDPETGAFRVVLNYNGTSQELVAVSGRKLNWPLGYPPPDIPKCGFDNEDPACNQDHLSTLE

mouse NPR1 protein = mouse NPR1 protein (mouse, UniProt P18293); assay: SPR
[8] = target: NPR2 extracellular domain with C-terminal MycMycHis (Homo sapiens, UniProt P20594); assay: SPR
[9] = target: NPR3 extracellular domain with C-terminal MycMycHis (Homo sapiens, UniProt P17342); assay: SPR
[10] = target: T4, atrial natriuretic peptide (human, UniProt P01160); assay: SPR
T4 chain: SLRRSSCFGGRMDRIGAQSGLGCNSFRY

Chain of NPR2 extracellular domain with C-terminal MycMycHis (P20594 23-458): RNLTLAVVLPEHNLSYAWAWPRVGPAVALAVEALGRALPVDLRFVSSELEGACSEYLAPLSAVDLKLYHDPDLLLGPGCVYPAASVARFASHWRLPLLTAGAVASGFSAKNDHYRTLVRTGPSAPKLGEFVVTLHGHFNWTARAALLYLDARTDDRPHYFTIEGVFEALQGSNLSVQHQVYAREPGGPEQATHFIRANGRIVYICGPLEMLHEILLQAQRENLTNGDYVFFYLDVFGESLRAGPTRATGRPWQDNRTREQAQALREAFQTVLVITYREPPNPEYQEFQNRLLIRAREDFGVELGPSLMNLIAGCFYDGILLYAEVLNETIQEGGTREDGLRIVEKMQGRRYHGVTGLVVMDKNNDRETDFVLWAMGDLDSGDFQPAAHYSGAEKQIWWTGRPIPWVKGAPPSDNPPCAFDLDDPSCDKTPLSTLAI
Chain of mouse NPR1 protein (P18293 29-469): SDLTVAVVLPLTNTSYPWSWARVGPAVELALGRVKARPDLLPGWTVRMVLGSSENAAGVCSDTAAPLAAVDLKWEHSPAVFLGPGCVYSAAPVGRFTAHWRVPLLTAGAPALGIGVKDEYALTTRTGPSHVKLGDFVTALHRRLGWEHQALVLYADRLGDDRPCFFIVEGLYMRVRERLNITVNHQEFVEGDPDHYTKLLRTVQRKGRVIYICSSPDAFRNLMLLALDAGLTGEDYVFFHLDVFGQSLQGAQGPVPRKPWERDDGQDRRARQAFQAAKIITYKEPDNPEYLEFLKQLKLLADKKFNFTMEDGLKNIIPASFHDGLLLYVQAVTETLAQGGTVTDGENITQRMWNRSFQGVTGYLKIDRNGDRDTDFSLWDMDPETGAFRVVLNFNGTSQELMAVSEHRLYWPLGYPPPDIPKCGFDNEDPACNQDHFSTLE
Chain of NPR3 extracellular domain with C-terminal MycMycHis (P17342 27-481): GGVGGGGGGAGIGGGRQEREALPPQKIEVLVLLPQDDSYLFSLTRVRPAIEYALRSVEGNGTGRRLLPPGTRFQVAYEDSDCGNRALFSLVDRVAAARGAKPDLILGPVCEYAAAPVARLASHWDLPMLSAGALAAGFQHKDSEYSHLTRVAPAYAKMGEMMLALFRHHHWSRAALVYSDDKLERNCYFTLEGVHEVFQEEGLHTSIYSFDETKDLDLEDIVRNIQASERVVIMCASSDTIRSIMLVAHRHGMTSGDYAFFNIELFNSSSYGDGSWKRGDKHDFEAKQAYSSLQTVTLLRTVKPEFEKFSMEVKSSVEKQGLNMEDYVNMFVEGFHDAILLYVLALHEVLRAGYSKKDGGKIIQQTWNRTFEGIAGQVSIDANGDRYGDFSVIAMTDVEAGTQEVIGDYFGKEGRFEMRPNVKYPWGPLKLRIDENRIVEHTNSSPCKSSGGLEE

B1: REGN5381 (antibody, V domains shown)
VH: QVQLVQSGAEVKKPGASVTVSCKASGYTFTDYYMHWVRQAPGQGLEWMGWIKPNSGGTNSAQRFQGRITMTWDTSISTAYMELSRLRSDDTAVYYCSRGGPVMNYYYYYGMDVWGQGTTVTVSS
VL: NIQMTQSPSSLSASVGDRVTITCRASQSIDSYLNWYQQKPGKAPKLLIYVASSLQSGVPSRFSGSGSGKDFTLTISSLQPEDFATYYCQQSYSIPTFGQGTRLEIK
- activation of canine NPR1 (Supplementary Fig. 1); EC50 (canine NPR1): > 100 nM
- EC50 [1]: 4.58 nM
- EC50 [2]: 2.27 nM
- EC50 [3]: 4.56 nM
- EC50 [4]: 2.42 nM
- EC50 [5]: 5.69 nM
- EC50 [6]: 3.01 nM
- binding result [7]: binds
- binding result (mouse NPR1 protein): no binding
- binding result [8]: no binding
- binding result [9]: no binding
- binding result [10]: no binding

From article PMC11410649 (Nature, 2024)
